Experimental findings from publication PMC3382979 (Journal of Structural Biology, 2012) are described below.

Where two headings read alike, the source gives them in different places.

Series [1] concerns the molecule itself. The experiment in a line: negative-stain electron microscopy, single particle analysis.
Series [2] concerns the molecule itself. The experiment in a line: AUC.
Series [3] deals with the molecule itself. The experiment in a line: AUC. The source holds these as a separate data set.

B1: His6-NSF-D1D2-myc fragment (206-744) (domain or fragment, Chinese hamster (from CHO cells), UniProt P18708 206-744, looked up)
chain: QSIINPDWNFEKMGIGGLDKEFSDIFRRAFASRVFPPEIVEQMGCKHVKGILLYGPPGCGKTLLARQIGKMLNAREPKVVNGPEILNKYVGESEANIRKLFADAEEEQRRLGANSGLHIIIFDEIDAICKQRGSMAGSTGVHDTVVNQLLSKIDGVEQLNNILVIGMTNRPDLIDEALLRPGRLEVKMEIGLPDEKGRLQILHIHTARMRGHQLLSADVDIKELAVETKNFSGAELEGLVRAAQSTAMNRHIKASTKVEVDMEKAESLQVTRGDFLASLENDIKPAFGTNQEDYASYIMNGIIKWGDPVTRVLDDGELLVQQTKNSDRTPLVSVLLEGPPHSGKTALAAKIAEESNFPFIKICSPDKMIGFSETAKCQAMKKIFDDAYKSQLSCVVVDDIERLLDYVPIGPRFSNLVLQALLVLLKKAPPQGRKLLIIGTTSRKDVLQEMEMLNAFSTTIHVPNIATGEQLLEALELLGNFKDKERTTIAQQVKGKKVWIGIKKLLMLIEMSLQMDPEYRVRKFLALLREEGASPLDFD
modifications: (Ni2+-NTA)2-Cy3 bound to the His6 tag (ultracentrifugation only)
B1: the stoichiometry N (commonly a count of units in the complex or per binding partner) in series [1] came out at 6. The “% Hexamer” value in “AUC [2]” was 44 ± 2.93%; in “AUC [3]”, 14.1 ± 0.31%.

B2: His6-NSF-D2 fragment (488-744) (domain or fragment, Chinese hamster (from CHO cells), UniProt P18708 488-744, looked up)
chain: IKPAFGTNQEDYASYIMNGIIKWGDPVTRVLDDGELLVQQTKNSDRTPLVSVLLEGPPHSGKTALAAKIAEESNFPFIKICSPDKMIGFSETAKCQAMKKIFDDAYKSQLSCVVVDDIERLLDYVPIGPRFSNLVLQALLVLLKKAPPQGRKLLIIGTTSRKDVLQEMEMLNAFSTTIHVPNIATGEQLLEALELLGNFKDKERTTIAQQVKGKKVWIGIKKLLMLIEMSLQMDPEYRVRKFLALLREEGASPLDFD
modifications: (Ni2+-NTA)2-Cy3 bound to the His6 tag (ultracentrifugation)
On to B2, for which the results for the “% Hexamer” value in “AUC [2]” and in the series “AUC [3]” were 28.8 ± 1.92% and 10.3 ± 0.63%, respectively.

B3: His6-NSF-myc (1-744), N-Ethylmaleimide Sensitive Factor, wild type (enzyme, Chinese hamster (from CHO cells), UniProt P18708 1-744, looked up)
chain: MAGRSMQAARCPTDELSLSNCAVVSEKDYQSGQHVIVRTSPNHKYIFTLRTHPSVVPGSVAFSLPQRKWAGLSIGQEIEVALYSFDKAKQCIGTMTIEIDFLQKKNIDSNPYDTDKMAAEFIQQFNNQAFSVGQQLVFSFNDKLFGLLVKDIEAMDPSILKGEPASGKRQKIEVGLVVGNSQVAFEKAENSSLNLIGKAKTKENRQSIINPDWNFEKMGIGGLDKEFSDIFRRAFASRVFPPEIVEQMGCKHVKGILLYGPPGCGKTLLARQIGKMLNAREPKVVNGPEILNKYVGESEANIRKLFADAEEEQRRLGANSGLHIIIFDEIDAICKQRGSMAGSTGVHDTVVNQLLSKIDGVEQLNNILVIGMTNRPDLIDEALLRPGRLEVKMEIGLPDEKGRLQILHIHTARMRGHQLLSADVDIKELAVETKNFSGAELEGLVRAAQSTAMNRHIKASTKVEVDMEKAESLQVTRGDFLASLENDIKPAFGTNQEDYASYIMNGIIKWGDPVTRVLDDGELLVQQTKNSDRTPLVSVLLEGPPHSGKTALAAKIAEESNFPFIKICSPDKMIGFSETAKCQAMKKIFDDAYKSQLSCVVVDDIERLLDYVPIGPRFSNLVLQALLVLLKKAPPQGRKLLIIGTTSRKDVLQEMEMLNAFSTTIHVPNIATGEQLLEALELLGNFKDKERTTIAQQVKGKKVWIGIKKLLMLIEMSLQMDPEYRVRKFLALLREEGASPLDFD
modifications: (Ni2+-NTA)2-Cy3 bound to the His6 tag (ultracentrifugation only; 1 mole of dye per mole of NSF hexamer)
Take B3: the “stoichiometry N” value in series [1] is 6. Also, the “% Hexamer” value in the series “AUC [2]” was 62 ± 5.74%; in “AUC [3]”, 47 ± 3.7%.

B4: His6-NSF-R67A-myc (enzyme, Chinese hamster (from CHO cells), UniProt P18708 1-744, looked up)
chain: MAGRSMQAARCPTDELSLSNCAVVSEKDYQSGQHVIVRTSPNHKYIFTLRTHPSVVPGSVAFSLPQAKWAGLSIGQEIEVALYSFDKAKQCIGTMTIEIDFLQKKNIDSNPYDTDKMAAEFIQQFNNQAFSVGQQLVFSFNDKLFGLLVKDIEAMDPSILKGEPASGKRQKIEVGLVVGNSQVAFEKAENSSLNLIGKAKTKENRQSIINPDWNFEKMGIGGLDKEFSDIFRRAFASRVFPPEIVEQMGCKHVKGILLYGPPGCGKTLLARQIGKMLNAREPKVVNGPEILNKYVGESEANIRKLFADAEEEQRRLGANSGLHIIIFDEIDAICKQRGSMAGSTGVHDTVVNQLLSKIDGVEQLNNILVIGMTNRPDLIDEALLRPGRLEVKMEIGLPDEKGRLQILHIHTARMRGHQLLSADVDIKELAVETKNFSGAELEGLVRAAQSTAMNRHIKASTKVEVDMEKAESLQVTRGDFLASLENDIKPAFGTNQEDYASYIMNGIIKWGDPVTRVLDDGELLVQQTKNSDRTPLVSVLLEGPPHSGKTALAAKIAEESNFPFIKICSPDKMIGFSETAKCQAMKKIFDDAYKSQLSCVVVDDIERLLDYVPIGPRFSNLVLQALLVLLKKAPPQGRKLLIIGTTSRKDVLQEMEMLNAFSTTIHVPNIATGEQLLEALELLGNFKDKERTTIAQQVKGKKVWIGIKKLLMLIEMSLQMDPEYRVRKFLALLREEGASPLDFD
modifications: (Ni2+-NTA)2-Cy3 bound to the His6 tag (ultracentrifugation)
Turning to B4, the “% Hexamer” value was determined as 55.6 ± 12.5% in the series “AUC [2]” and 38.7 ± 4.21% in the series “AUC [3]”.

B5: His6-NSF-L441A-myc (enzyme, Chinese hamster (from CHO cells), UniProt P18708 1-744, looked up)
chain: MAGRSMQAARCPTDELSLSNCAVVSEKDYQSGQHVIVRTSPNHKYIFTLRTHPSVVPGSVAFSLPQRKWAGLSIGQEIEVALYSFDKAKQCIGTMTIEIDFLQKKNIDSNPYDTDKMAAEFIQQFNNQAFSVGQQLVFSFNDKLFGLLVKDIEAMDPSILKGEPASGKRQKIEVGLVVGNSQVAFEKAENSSLNLIGKAKTKENRQSIINPDWNFEKMGIGGLDKEFSDIFRRAFASRVFPPEIVEQMGCKHVKGILLYGPPGCGKTLLARQIGKMLNAREPKVVNGPEILNKYVGESEANIRKLFADAEEEQRRLGANSGLHIIIFDEIDAICKQRGSMAGSTGVHDTVVNQLLSKIDGVEQLNNILVIGMTNRPDLIDEALLRPGRLEVKMEIGLPDEKGRLQILHIHTARMRGHQLLSADVDIKELAVETKNFSGAEAEGLVRAAQSTAMNRHIKASTKVEVDMEKAESLQVTRGDFLASLENDIKPAFGTNQEDYASYIMNGIIKWGDPVTRVLDDGELLVQQTKNSDRTPLVSVLLEGPPHSGKTALAAKIAEESNFPFIKICSPDKMIGFSETAKCQAMKKIFDDAYKSQLSCVVVDDIERLLDYVPIGPRFSNLVLQALLVLLKKAPPQGRKLLIIGTTSRKDVLQEMEMLNAFSTTIHVPNIATGEQLLEALELLGNFKDKERTTIAQQVKGKKVWIGIKKLLMLIEMSLQMDPEYRVRKFLALLREEGASPLDFD
modifications: (Ni2+-NTA)2-Cy3 bound to the His6 tag (ultracentrifugation)
Consider B5, for which the entries for the “% Hexamer” value in the series “AUC [2]” and in “AUC [3]” were 34.4 ± 1.06% and 34.2 ± 2.78%, respectively.
